One block for each molecule: values may come before it.
Tests used:
[1] = molecular target: T1, Noc (N121S) (Bacillus subtilis, UniProt P37524, N121S); experiment: ITC; type: binding
T1 construct: B. subtilis Noc (N121S), His6-tagged

[2] = molecular target: T2, Noc (nucleoid occlusion protein) (Bacillus subtilis, UniProt P37524); experiment: ITC; type: binding
T2 construct: B. subtilis Noc (WT), His6-tagged

[3] = molecular target: Geobacillus thermoleovorans NocNΔ26ΔCTD (Geobacillus thermoleovorans); experiment: crystal structure; G. thermoleovorans NocNΔ26ΔCTD, premixed with 1 mM CTPγS and 1 mM MgCl2 (no nucleotide in the density), 2.95 Å, space group C222(1), one copy per asymmetric unit; dimer with a symmetry mate
[4] = molecular target: T3, Noc (Bacillus subtilis, UniProt P37524 1-283); experiment: BLI; 1 mM CTP; no increase beyond nucleation; BLI: 100 mM Tris-HCl pH 8.0, 150 mM NaCl, 1 mM MgCl2, 0.005% Tween 20, 22 C; 1 uM Noc dimer +/- 1 mM NTP; conditions: protein: recombinant; tags: C-terminal His6; chain copies: 2; label: biotin at M13F end; 5' overhang 4 nt (GATC) at BamHI end
T3 sequence: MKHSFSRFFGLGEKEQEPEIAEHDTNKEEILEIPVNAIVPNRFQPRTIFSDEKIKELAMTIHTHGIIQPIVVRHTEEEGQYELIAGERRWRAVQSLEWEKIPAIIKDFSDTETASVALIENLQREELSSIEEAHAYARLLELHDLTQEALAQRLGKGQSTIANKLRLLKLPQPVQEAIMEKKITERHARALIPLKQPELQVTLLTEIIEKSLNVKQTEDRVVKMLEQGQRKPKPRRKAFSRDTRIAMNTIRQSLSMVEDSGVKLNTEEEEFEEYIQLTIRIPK

[5] = molecular target: T4, Noc (N121S) (Bacillus subtilis, UniProt P37524 1-283, N121S); experiment: BLI; 1 mM CTP; nucleates, does not spread; BLI: 100 mM Tris-HCl pH 8.0, 150 mM NaCl, 1 mM MgCl2, 0.005% Tween 20, 22 C; 1 uM Noc dimer +/- 1 mM NTP; conditions: protein: recombinant; tags: C-terminal His6; chain copies: 2; label: biotin on both ends; blunt
T4 sequence: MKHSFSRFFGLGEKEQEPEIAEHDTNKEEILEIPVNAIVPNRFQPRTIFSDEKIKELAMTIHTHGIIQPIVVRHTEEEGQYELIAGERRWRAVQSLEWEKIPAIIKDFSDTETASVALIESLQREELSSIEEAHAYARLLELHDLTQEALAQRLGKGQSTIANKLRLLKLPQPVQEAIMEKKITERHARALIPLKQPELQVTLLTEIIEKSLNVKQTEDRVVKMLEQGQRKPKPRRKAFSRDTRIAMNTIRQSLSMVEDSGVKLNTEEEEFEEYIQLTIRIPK

[6] = molecular target: T5, Noc (R89A) (Bacillus subtilis, UniProt P37524 1-283, R89A); experiment: as above; conditions: protein: recombinant; tags: C-terminal His6; chain copies: 2; label: biotin on both ends; blunt
T5 sequence: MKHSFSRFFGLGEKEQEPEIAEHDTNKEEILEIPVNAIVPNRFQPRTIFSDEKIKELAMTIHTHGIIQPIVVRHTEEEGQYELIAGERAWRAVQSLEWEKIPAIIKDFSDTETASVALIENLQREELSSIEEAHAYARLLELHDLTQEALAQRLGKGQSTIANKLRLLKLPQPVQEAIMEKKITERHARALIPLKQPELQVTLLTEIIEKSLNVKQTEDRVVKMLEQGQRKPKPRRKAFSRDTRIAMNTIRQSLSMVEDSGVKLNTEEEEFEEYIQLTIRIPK

[7] = molecular target: T3, Noc; experiment: BLI; 1 mM CTP; BLI: 100 mM Tris-HCl pH 8.0, 150 mM NaCl, 1 mM MgCl2, 0.005% Tween 20, 22 C; 1 uM Noc dimer +/- 1 mM NTP; conditions: protein: recombinant; tags: C-terminal His6; chain copies: 2; label: biotin on both ends; blunt
[8] = molecular target: T3, Noc; experiment: BLI; 1 uM Noc; 1 mM CTP; BLI: 100 mM Tris-HCl pH 8.0, 150 mM NaCl, 1 mM MgCl2, 0.005% Tween 20, 22 C; 1 uM Noc dimer +/- 1 mM NTP; conditions: protein: recombinant; tags: C-terminal His6; chain copies: 2; label: biotin on both ends; blunt
[9] = molecular target: the molecule itself; experiment: cross-linking; BMOE (1 mM) cysteine crosslinking of 10 uM Noc variant ± 1 mM NTP ± 1 uM 22 bp NBS/parS DNA; 10 mM Tris-HCl pH 7.4, 200 mM NaCl, 1 mM MgCl2; 10 min at 22°C; SDS-PAGE, Coomassie, band quantification; reads self-engagement of the N-terminal domain

Molecule: Nc1ccn([C@@H]2O[C@H](COP(=O)(O)OP(=O)(O)OP(O)(O)=S)[C@@H](O)[C@H]2O)c(=O)n1 [CTPɣS]
Kd [1]: 232 ± 66 µM | Kd [2]: 68 ± 23 µM

stoichiometry N [3]: 2
Molecule: Geobacillus thermoleovorans NocNΔ26ΔCTD (domain or fragment)

B1: 170 bp NBS DNA, BamHI-cut (open) (dsDNA)
DNA 1: CGCCAGGGTTTTCCCAGTCACGACGTTGTAAAACGACGGCCAGAATTCGCAACGTGTATTTCCCGGGAAATAGCCTTGAACTGATAACGACTCTATCATTGATAGAGTGTTCTCTCCACGG
DNA 2: GATCCCGTGGAGAGAACACTCTATCAATGATAGAGTCGTTATCAGTTCAAGGCTATTTCCCGGGAAATACACGTTGCGAATTCTGGCCGTCGTTTTACAACGTCGTGACTGGGAAAACCCTGGCG
binding result [4]: binds

B2: 170 bp NBS DNA, closed (dsDNA)
DNA 1: CGCCAGGGTTTTCCCAGTCACGACGTTGTAAAACGACGGCCAGAATTCGCAACGTGTATTTCCCGGGAAATAGCCTTGAACTGATAACGACTCTATCATTGATAGAGTGTTCTCTCCACGGGATCCCCAGGCATGCAAGCTTGGCGTAATCATGGTCATAGCTGTTTCCT
DNA 2: AGGAAACAGCTATGACCATGATTACGCCAAGCTTGCATGCCTGGGGATCCCGTGGAGAGAACACTCTATCAATGATAGAGTCGTTATCAGTTCAAGGCTATTTCCCGGGAAATACACGTTGCGAATTCTGGCCGTCGTTTTACAACGTCGTGACTGGGAAAACCCTGGCG
binding result [5]: binds | binding result [6]: binds | binding signal [7]: ~6 fold BLI response vs no CTP

B3: 170 bp parS DNA, closed (dsDNA)
DNA 1: CGCCAGGGTTTTCCCAGTCACGACGTTGTAAAACGACGGCCAGAATTCGCAACGTGTGTTTCACGTGAAACAGCCTTGAACTGATAACGACTCTATCATTGATAGAGTGTTCTCTCCACGGGATCCCCAGGCATGCAAGCTTGGCGTAATCATGGTCATAGCTGTTTCCT
DNA 2: AGGAAACAGCTATGACCATGATTACGCCAAGCTTGCATGCCTGGGGATCCCGTGGAGAGAACACTCTATCAATGATAGAGTCGTTATCAGTTCAAGGCTGTTTCACGTGAAACACACGTTGCGAATTCTGGCCGTCGTTTTACAACGTCGTGACTGGGAAAACCCTGGCG
binding result [8]: no binding

B4: B. subtilis NocNΔ10 (E29C) (domain or fragment, Bacillus subtilis, UniProt P37524 11-283, looked up)
chain: LGEKEQEPEIAEHDTNKECILEIPVNAIVPNRFQPRTIFSDEKIKELAMTIHTHGIIQPIVVRHTEEEGQYELIAGERRWRAVQSLEWEKIPAIIKDFSDTETASVALIENLQREELSSIEEAHAYARLLELHDLTQEALAQRLGKGQSTIANKLRLLKLPQPVQEAIMEKKITERHARALIPLKQPELQVTLLTEIIEKSLNVKQTEDRVVKMLEQGQRKPKPRRKAFSRDTRIAMNTIRQSLSMVEDSGVKLNTEEEEFEEYIQLTIRIPK
binding result [9]: binds

From publication PMC8429893, “CTP regulates membrane-binding activity of the nucleoid occlusion protein Noc” (Molecular Cell, 2021)
